In assay [1] the target is T1, cynomolgus monkey PSMA (cynomolgus monkey, UniProt A0A2K5VNZ0 44-750).
T1 chain: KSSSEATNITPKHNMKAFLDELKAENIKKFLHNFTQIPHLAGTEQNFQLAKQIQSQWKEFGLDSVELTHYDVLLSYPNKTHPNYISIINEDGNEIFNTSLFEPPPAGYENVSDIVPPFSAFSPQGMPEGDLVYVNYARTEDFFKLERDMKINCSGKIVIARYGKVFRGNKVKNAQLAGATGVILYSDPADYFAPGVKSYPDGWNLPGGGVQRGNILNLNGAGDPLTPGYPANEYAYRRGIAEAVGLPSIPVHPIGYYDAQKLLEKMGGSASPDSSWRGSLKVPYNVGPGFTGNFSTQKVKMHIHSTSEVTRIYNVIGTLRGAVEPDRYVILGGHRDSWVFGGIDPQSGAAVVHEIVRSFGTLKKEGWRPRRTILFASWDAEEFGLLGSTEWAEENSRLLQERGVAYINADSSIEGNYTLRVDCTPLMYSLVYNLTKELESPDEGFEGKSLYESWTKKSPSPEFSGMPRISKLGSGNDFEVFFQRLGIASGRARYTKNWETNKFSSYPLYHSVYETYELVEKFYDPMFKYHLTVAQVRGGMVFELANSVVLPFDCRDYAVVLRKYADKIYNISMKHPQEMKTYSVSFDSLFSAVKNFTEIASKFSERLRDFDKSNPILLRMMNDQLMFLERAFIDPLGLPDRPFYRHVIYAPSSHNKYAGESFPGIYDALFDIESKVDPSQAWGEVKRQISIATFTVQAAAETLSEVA
In words: FACS; CHO-cyno PSMA cells. In general terms: In flow cytometry, cells or beads pass a laser one at a time.

Assay [2] has as its target T2, human PSMA (human, UniProt Q04609 44-750). In words: ELISA. (In general: In an ELISA, binding on a coated surface is turned into a signal by an enzyme label.)
Assay [3] has as its target T1, cynomolgus monkey PSMA. The experiment in a line: ELISA.
In assay [4] the target is T2, human PSMA. The experiment in a line: FACS; CHO-human PSMA cells.
In assay [5] the target is T2, human PSMA. In words: FACS; Rat1(e) hPSMA cells, lot RC6647.
The target of assay [6] is T2, human PSMA. The experiment in a line: SPR. On the technique in general: SPR reads the build-up and loss of mass on a sensor chip optically.
In assay [7] the target is T1, cynomolgus monkey PSMA. The experiment in a line: SPR.
In assay [8] the target is T2, human PSMA. The experiment in a line: FACS; Rat1(e) hPSMA cells, lot RC6589.

T2 sequence (Q04609 44-750): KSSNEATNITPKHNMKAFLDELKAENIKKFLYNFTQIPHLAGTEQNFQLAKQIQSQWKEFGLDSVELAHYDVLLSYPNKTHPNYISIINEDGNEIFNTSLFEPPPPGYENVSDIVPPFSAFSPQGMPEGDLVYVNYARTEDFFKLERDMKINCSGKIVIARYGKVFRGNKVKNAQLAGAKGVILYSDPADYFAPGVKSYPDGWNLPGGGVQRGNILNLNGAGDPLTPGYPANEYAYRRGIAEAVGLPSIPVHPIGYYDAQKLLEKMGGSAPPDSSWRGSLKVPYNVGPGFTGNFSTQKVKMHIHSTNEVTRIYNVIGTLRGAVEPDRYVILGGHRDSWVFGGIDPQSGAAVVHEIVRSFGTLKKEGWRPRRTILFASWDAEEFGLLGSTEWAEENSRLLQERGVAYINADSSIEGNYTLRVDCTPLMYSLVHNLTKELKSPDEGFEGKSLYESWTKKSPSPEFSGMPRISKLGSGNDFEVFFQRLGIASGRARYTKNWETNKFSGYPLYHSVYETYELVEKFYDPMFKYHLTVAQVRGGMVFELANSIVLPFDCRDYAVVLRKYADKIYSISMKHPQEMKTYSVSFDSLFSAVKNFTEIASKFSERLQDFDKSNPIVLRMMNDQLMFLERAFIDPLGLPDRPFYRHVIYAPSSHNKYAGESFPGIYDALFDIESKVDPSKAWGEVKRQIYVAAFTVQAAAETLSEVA

B1: cHv75-2a11.G1(L328C)k (antibody, V domains shown)
VH: QVQLVESGGGVVQPGRSLRLSCAASGFTFSSYDMHWVRQAPGKGLEWVAVIWYDGSNKYYADSLKGRFTISRDNSKNTLYLQMNSLRAEDTAVYYCARVIAARTFYYYGMDVWGQGTTVTVSS
VL: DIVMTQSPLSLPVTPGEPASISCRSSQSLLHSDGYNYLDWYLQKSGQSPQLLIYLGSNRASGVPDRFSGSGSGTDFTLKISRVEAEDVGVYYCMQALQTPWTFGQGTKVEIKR
Broadly, the Kd is the constant that tells how readily two partners part at equilibrium. As to B1, the Kd in the assay with cynomolgus monkey PSMA [1] is 431 pM; in the assay with human PSMA [2] it was 138 pM; with cynomolgus monkey PSMA [3] it was 104 pM; in the assay with human PSMA [4], 709 pM; in the assay with human PSMA [5], 761 pM; with human PSMA [6], 59000 pM. Also, the dissociation constant (Kd) in the assay with cynomolgus monkey PSMA [7] was 47000 pM.

B2: cHv75-2a7.G1(C99Y;L328C)k (antibody, V domains shown)
VH: EVQLVESGGGLVQPGGSLRLSCAASGITFSNYWMSWVRQAPGKGLEWVANIKKDGSEKFYVDSVKGRFTISRDNAKNSLYLQINSLRAEDTAMYYCAREIQLYLQHWGQGTLVTVSS
VL: DIQMTQSPSSVSASVGGRVTITCRASQGISNWLAWYQQKPGKAPKLLIYAASSLQSGVPSRFSGSGSGTDFTLTISNLQPEDFASYYCQQANSFPLTFGGGTKVEIKR
In the case of B2, the Kd with cynomolgus monkey PSMA [1] is 166 pM; with human PSMA [8] it was 205 pM; in the assay with human PSMA [2], 74 pM; in the assay with cynomolgus monkey PSMA [3], 63 pM; with human PSMA [4] it was 94 pM; with human PSMA [6] it was 11000 pM. In the assay with cynomolgus monkey PSMA [7], this molecule yielded an equilibrium dissociation constant (Kd) of 36000 pM.

(Values after US20230059690A1 (published 2023).)
